The results in this text go back to publication PMC5830076.

The target of this test is ARΔ423-448 (Flag-AR with residues 423 to 448 removed) (human) (UniProt P10275). Kind of test: proximity ligation.

“Myc-RAP74-CTD (from UniProt P35269 450-517) (domain or fragment)”: the reduction of the interaction against WT AR (PLA) came to 40%.
